Measured values reported in US20040205843A1 (NORTH CAROLINA STATE UNIVERSITY, published 2004).
Like-named read-outs stand apart in the source and are kept apart here.

B1: AL1 AAA136 (Leu) fused to the Gal4 activation domain (pNSB785) (other)
chain: MPSHPKRFQINAKNYFLTYPQCSLSKEESLSQLQALNTPINKKFIKICRELHEDGQPHLHVLIQFEGKYCCQNQRFFDLVSPTRSAHFHPNIQRAKSSSDVKTYIDKDGDTLVWGEFQVDGRSARGGCQTSNDLLLEALNASSKEEALQIIREKIPEKYLFQFHNLNSNLDRIFDKTPEPWLPPFHVSSFTNVPDEMRQWAENYFGKSSAARPERPISIIIEGDSRTGKTMWARSLGPHNYLSGHLDLNSRVYSNKVEYNVIDDVTPQYLKLKHWKELIGAQRDWQTNCKYGKPVQIKGGIPSIVLCNPGEGASYKVFLDKEENTPLKNWTFHNAKFVFLNSPLYQSSTQSS
B2: TGMV AL1, wild type, full length, untagged (other)
chain: MPSHPKRFQINAKNYFLTYPQCSLSKEESLSQLQALNTPINKKFIKICRELHEDGQPHLHVLIQFEGKYCCQNQRFFDLVSPTRSAHFHPNIQRAKSSSDVKTYIDKDGDTLVWGEFQVDGRSARGGCQTSNDAAAEALNASSKEEALQIIREKIPEKYLFQFHNLNSNLDRIFDKTPEPWLPPFHVSSFTNVPDEMRQWAENYFGKSSAARPERPISIIIEGDSRTGKTMWARSLGPHNYLSGHLDLNSRVYSNKVEYNVIDDVTPQYLKLKHWKELIGAQRDWQTNCKYGKPVQIKGGIPSIVLCNPGEGASYKVFLDKEENTPLKNWTFHNAKFVFLNSPLYQSSTQSS
notes: also called Rep; authentic AL1
B3: AL1 EKY159 (Ala7) fused to the Gal4 activation domain (pNSB760) (other)
chain: MPSHPKRFQINAKNYFLTYPQCSLSKEESLSQLQALNTPINKKFIKICRELHEDGQPHLHVLIQFEGKYCCQNQRFFDLVSPTRSAHFHPNIQRAKSSSDVKTYIDKDGDTLVWGEFQVDGRSARGGCQTSNDAAAEALNASSKEEALQIIREKIPAAALFQFHNLNSNLDRIFDKTPEPWLPPFHVSSFTNVPDEMRQWAENYFGKSSAARPERPISIIIEGDSRTGKTMWARSLGPHNYLSGHLDLNSRVYSNKVEYNVIDDVTPQYLKLKHWKELIGAQRDWQTNCKYGKPVQIKGGIPSIVLCNPGEGASYKVFLDKEENTPLKNWTFHNAKFVFLNSPLYQSSTQSS
B4: AL1 KEE146 (Ala5), full length, untagged (other)
chain: MPSHPKRFQINAKNYFLTYPQCSLSKEESLSQLQALNTPINKKFIKICRELHEDGQPHLHVLIQFEGKYCCQNQRFFDLVSPTRSAHFHPNIQRAKSSSDVKTYIDKDGDTLVWGEFQVDGRSARGGCQTSNDAAAEALNASSAAAALQIIREKIPEKYLFQFHNLNSNLDRIFDKTPEPWLPPFHVSSFTNVPDEMRQWAENYFGKSSAARPERPISIIIEGDSRTGKTMWARSLGPHNYLSGHLDLNSRVYSNKVEYNVIDDVTPQYLKLKHWKELIGAQRDWQTNCKYGKPVQIKGGIPSIVLCNPGEGASYKVFLDKEENTPLKNWTFHNAKFVFLNSPLYQSSTQSS
B5: AL1 Q-HN165 (Ala8), full length, untagged (other)
chain: MPSHPKRFQINAKNYFLTYPQCSLSKEESLSQLQALNTPINKKFIKICRELHEDGQPHLHVLIQFEGKYCCQNQRFFDLVSPTRSAHFHPNIQRAKSSSDVKTYIDKDGDTLVWGEFQVDGRSARGGCQTSNDAAAEALNASSKEEALQIIREKIPEKYLFAFAALNSNLDRIFDKTPEPWLPPFHVSSFTNVPDEMRQWAENYFGKSSAARPERPISIIIEGDSRTGKTMWARSLGPHNYLSGHLDLNSRVYSNKVEYNVIDDVTPQYLKLKHWKELIGAQRDWQTNCKYGKPVQIKGGIPSIVLCNPGEGASYKVFLDKEENTPLKNWTFHNAKFVFLNSPLYQSSTQSS
B6: AL1 N-DR172 (Ala9), full length, untagged (other)
chain: MPSHPKRFQINAKNYFLTYPQCSLSKEESLSQLQALNTPINKKFIKICRELHEDGQPHLHVLIQFEGKYCCQNQRFFDLVSPTRSAHFHPNIQRAKSSSDVKTYIDKDGDTLVWGEFQVDGRSARGGCQTSNDAAAEALNASSKEEALQIIREKIPEKYLFQFHNLNSALAAIFDKTPEPWLPPFHVSSFTNVPDEMRQWAENYFGKSSAARPERPISIIIEGDSRTGKTMWARSLGPHNYLSGHLDLNSRVYSNKVEYNVIDDVTPQYLKLKHWKELIGAQRDWQTNCKYGKPVQIKGGIPSIVLCNPGEGASYKVFLDKEENTPLKNWTFHNAKFVFLNSPLYQSSTQSS
B7: AL1 E-N140 (Ala4), full length, untagged (other)
chain: MPSHPKRFQINAKNYFLTYPQCSLSKEESLSQLQALNTPINKKFIKICRELHEDGQPHLHVLIQFEGKYCCQNQRFFDLVSPTRSAHFHPNIQRAKSSSDVKTYIDKDGDTLVWGEFQVDGRSARGGCQTSNDAAAAALAASSKEEALQIIREKIPEKYLFQFHNLNSNLDRIFDKTPEPWLPPFHVSSFTNVPDEMRQWAENYFGKSSAARPERPISIIIEGDSRTGKTMWARSLGPHNYLSGHLDLNSRVYSNKVEYNVIDDVTPQYLKLKHWKELIGAQRDWQTNCKYGKPVQIKGGIPSIVLCNPGEGASYKVFLDKEENTPLKNWTFHNAKFVFLNSPLYQSSTQSS
B8: AL1 Q-HN165 (Ala8) fused to the Gal4 activation domain (pNSB761) (other)
chain: MPSHPKRFQINAKNYFLTYPQCSLSKEESLSQLQALNTPINKKFIKICRELHEDGQPHLHVLIQFEGKYCCQNQRFFDLVSPTRSAHFHPNIQRAKSSSDVKTYIDKDGDTLVWGEFQVDGRSARGGCQTSNDAAAEALNASSKEEALQIIREKIPEKYLFAFAALNSNLDRIFDKTPEPWLPPFHVSSFTNVPDEMRQWAENYFGKSSAARPERPISIIIEGDSRTGKTMWARSLGPHNYLSGHLDLNSRVYSNKVEYNVIDDVTPQYLKLKHWKELIGAQRDWQTNCKYGKPVQIKGGIPSIVLCNPGEGASYKVFLDKEENTPLKNWTFHNAKFVFLNSPLYQSSTQSS
B9: AL1 D120 (Ala14) fused to the Gal4 activation domain (pNSB871) (other)
chain: MPSHPKRFQINAKNYFLTYPQCSLSKEESLSQLQALNTPINKKFIKICRELHEDGQPHLHVLIQFEGKYCCQNQRFFDLVSPTRSAHFHPNIQRAKSSSDVKTYIDKDGDTLVWGEFQVAGRSARGGCQTSNDAAAEALNASSKEEALQIIREKIPEKYLFQFHNLNSNLDRIFDKTPEPWLPPFHVSSFTNVPDEMRQWAENYFGKSSAARPERPISIIIEGDSRTGKTMWARSLGPHNYLSGHLDLNSRVYSNKVEYNVIDDVTPQYLKLKHWKELIGAQRDWQTNCKYGKPVQIKGGIPSIVLCNPGEGASYKVFLDKEENTPLKNWTFHNAKFVFLNSPLYQSSTQSS
B10: AL1 K-E179 (Ala10), full length, untagged (other)
chain: MPSHPKRFQINAKNYFLTYPQCSLSKEESLSQLQALNTPINKKFIKICRELHEDGQPHLHVLIQFEGKYCCQNQRFFDLVSPTRSAHFHPNIQRAKSSSDVKTYIDKDGDTLVWGEFQVDGRSARGGCQTSNDAAAEALNASSKEEALQIIREKIPEKYLFQFHNLNSNLDRIFDATPAPWLPPFHVSSFTNVPDEMRQWAENYFGKSSAARPERPISIIIEGDSRTGKTMWARSLGPHNYLSGHLDLNSRVYSNKVEYNVIDDVTPQYLKLKHWKELIGAQRDWQTNCKYGKPVQIKGGIPSIVLCNPGEGASYKVFLDKEENTPLKNWTFHNAKFVFLNSPLYQSSTQSS
B11: AL1 N-DR172 (Ala9) fused to the Gal4 activation domain (pNSB762) (other)
chain: MPSHPKRFQINAKNYFLTYPQCSLSKEESLSQLQALNTPINKKFIKICRELHEDGQPHLHVLIQFEGKYCCQNQRFFDLVSPTRSAHFHPNIQRAKSSSDVKTYIDKDGDTLVWGEFQVDGRSARGGCQTSNDAAAEALNASSKEEALQIIREKIPEKYLFQFHNLNSALAAIFDKTPEPWLPPFHVSSFTNVPDEMRQWAENYFGKSSAARPERPISIIIEGDSRTGKTMWARSLGPHNYLSGHLDLNSRVYSNKVEYNVIDDVTPQYLKLKHWKELIGAQRDWQTNCKYGKPVQIKGGIPSIVLCNPGEGASYKVFLDKEENTPLKNWTFHNAKFVFLNSPLYQSSTQSS
B12: AL1 REK154 (Ala6), full length, untagged (other)
chain: MPSHPKRFQINAKNYFLTYPQCSLSKEESLSQLQALNTPINKKFIKICRELHEDGQPHLHVLIQFEGKYCCQNQRFFDLVSPTRSAHFHPNIQRAKSSSDVKTYIDKDGDTLVWGEFQVDGRSARGGCQTSNDAAAEALNASSKEEALQIIAAAIPEKYLFQFHNLNSNLDRIFDKTPEPWLPPFHVSSFTNVPDEMRQWAENYFGKSSAARPERPISIIIEGDSRTGKTMWARSLGPHNYLSGHLDLNSRVYSNKVEYNVIDDVTPQYLKLKHWKELIGAQRDWQTNCKYGKPVQIKGGIPSIVLCNPGEGASYKVFLDKEENTPLKNWTFHNAKFVFLNSPLYQSSTQSS
B13: AL1 134-352 (other)
chain: AAAEALNASSKEEALQIIREKIPEKYLFQFHNLNSNLDRIFDKTPEPWLPPFHVSSFTNVPDEMRQWAENYFGKSSAARPERPISIIIEGDSRTGKTMWARSLGPHNYLSGHLDLNSRVYSNKVEYNVIDDVTPQYLKLKHWKELIGAQRDWQTNCKYGKPVQIKGGIPSIVLCNPGEGASYKVFLDKEENTPLKNWTFHNAKFVFLNSPLYQSSTQSS
B14: AL1 147-352 (other)
chain: ALQIIREKIPEKYLFQFHNLNSNLDRIFDKTPEPWLPPFHVSSFTNVPDEMRQWAENYFGKSSAARPERPISIIIEGDSRTGKTMWARSLGPHNYLSGHLDLNSRVYSNKVEYNVIDDVTPQYLKLKHWKELIGAQRDWQTNCKYGKPVQIKGGIPSIVLCNPGEGASYKVFLDKEENTPLKNWTFHNAKFVFLNSPLYQSSTQSS
B15: AL1 1-180 (other)
chain: MPSHPKRFQINAKNYFLTYPQCSLSKEESLSQLQALNTPINKKFIKICRELHEDGQPHLHVLIQFEGKYCCQNQRFFDLVSPTRSAHFHPNIQRAKSSSDVKTYIDKDGDTLVWGEFQVDGRSARGGCQTSNDAAAEALNASSKEEALQIIREKIPEKYLFQFHNLNSNLDRIFDKTPEP

Tests used:
[1] = biological target: T1, Wild type TGMV AL1 fused to the Gal4 DNA binding domain (pNSB736) (tomato golden mosaic virus (TGMV))
[2] = biological target: Maize Rb (amino acids 214-866) fused to the Gal4 DNA binding domain (Zm214C) (maize)
[3] = biological target: T2, Full length GST-AL1 1-352 (tomato golden mosaic virus (TGMV), UniProt P03567 1-352); experiment: GST co-purification from insect cells, immunoblot
T2 sequence: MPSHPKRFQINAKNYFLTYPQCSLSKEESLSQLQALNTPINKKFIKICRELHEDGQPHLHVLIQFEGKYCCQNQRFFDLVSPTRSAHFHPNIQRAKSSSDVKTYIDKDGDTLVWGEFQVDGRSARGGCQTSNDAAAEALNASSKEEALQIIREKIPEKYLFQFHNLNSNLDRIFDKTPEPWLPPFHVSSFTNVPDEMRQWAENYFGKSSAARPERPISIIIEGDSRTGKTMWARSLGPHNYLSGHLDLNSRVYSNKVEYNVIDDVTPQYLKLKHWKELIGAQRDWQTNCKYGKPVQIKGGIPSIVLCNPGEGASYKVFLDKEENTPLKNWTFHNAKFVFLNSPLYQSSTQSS

[4] = biological target: T1, Wild type TGMV AL1 fused to the Gal4 …; remark: listed apart in the source

Chain of Maize Rb (amino acids 214-866) fused to the Gal4 DNA binding domain (Zm214C) (maize) (P04386 1-147): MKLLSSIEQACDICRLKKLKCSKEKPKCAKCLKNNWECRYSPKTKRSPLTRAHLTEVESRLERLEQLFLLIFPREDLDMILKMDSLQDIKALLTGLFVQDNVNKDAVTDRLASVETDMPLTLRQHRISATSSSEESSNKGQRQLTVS

| Binder | binding result [3] | other results |
| --- | --- | --- |
| B1 | – | oligomer. (oligomerization activity relative to wild type) [1]: 30 relative to wild type (100); Rep/Rb (Rb binding activity relative to wild type) [2]: 8 relative to wild type (100) |
| B2 | binds | – |
| B3 | – | Rep/Rb (Rb binding activity relative to wild type) [2]: 31 relative to wild type (100) |
| B4 | binds | – |
| B5 | binds | – |
| B6 | binds | – |
| B7 | binds | – |
| B8 | – | oligomer. (oligomerization activity relative to wild type) [4]: 102 relative to wild type (100) |
| B9 | – | oligomer. (oligomerization activity relative to wild type) [4]: 67 relative to wild type (100) |
| B10 | binds | – |
| B11 | – | oligomer. (oligomerization activity relative to wild type) [4]: 31 relative to wild type (100) |
| B12 | binds | – |
| B13 | binds | – |
| B14 | binds | – |
| B15 | binds | – |
